Measured values from patent US8445441B2, “Inhibitors of BCL-2” (Case Western Reserve University, priority 2007, dated 2013).

Experiments:
[1] = tested on: Jurkat cells; assay: IP3 ester-induced Ca2+ elevation; format: cell-based; settings: D-myo InsP3 hexakisbutyryloxymethyl ester
Text: To exclude the possibility that peptide 2 may interfere with the upstream TCR activation pathway, a cell-permeant IP3 ester (D-myo InsP3 hexakisbutyryloxymethyl ester) was used to bypass TCR activation and anti-CD3-induced IP3 generation.

[2] = biological target: T1, Bcl-2-IP3R interaction (Homo sapiens, UniProt P10415); assay: GST pull-down of Bcl-2 from Bcl-2(+) WEHI7.2 extracts with GST-IP3R domain 3; format: binding, mouse; set-up: expressed in transfected cells; host or cells: Bcl-2(+) WEHI7.2 cells (source of Bcl-2)
T1 sequence (P10415 whole entry, the tested form may be a part): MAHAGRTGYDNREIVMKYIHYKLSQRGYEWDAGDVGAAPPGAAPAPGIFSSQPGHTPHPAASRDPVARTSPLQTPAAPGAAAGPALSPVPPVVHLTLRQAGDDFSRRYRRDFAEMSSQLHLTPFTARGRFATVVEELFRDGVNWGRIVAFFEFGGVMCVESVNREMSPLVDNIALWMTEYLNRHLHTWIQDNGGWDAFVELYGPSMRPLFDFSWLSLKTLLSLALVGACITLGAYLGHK
Text: To identify where Bcl-2 interacts on the IP3R, we used a series of GST-IP3R fusion constructs corresponding to five fragments covering the first N-terminal 2216 amino acids and 1 fragment corresponding to the last 160 amino acids of mouse IP3R type 1 (FIG. 3). These fragments are located in the cytoplasm and coincide with “natural” domains generated by limited proteolysis. The transmembrane domain was not included. After purification, fragments migrated as single prominent bands corresponding to their expected molecular weights, although some minor degradation products were detected.
The first set of GST pull-down experiments utilized extracts of Bcl-2(+) WEHI7.2 cells and Jurkat cells as two independent sources of Bcl-2. Cell extracts were incubated with GST-IP3R fragments prebound to glutathione sepharose resin, with equal loading of the GST-IP3R fragments. […] These experiments were repeated a total of five times with the same result. It is important to note that, following incubation of cell extracts with GST-IP3R fragments on the glutathione sepharose resin, the resin was washed extensively.
Since the IP3R binding region was narrowed down to the 80 amino acid subdomain 3a1 (aa 1347-1426), we designed two 20 amino acid peptides (peptide 1, aa 1365-1384 (SEQ ID NO:2); peptide 2, aa 1389-1408 (SEQ ID NO:3)) based on the degree of homology in this region among different IP3R isoforms. Also, preference was given to regions that have beta-turn and/or α-helical structures, rather than random-coil or nonstructured sequences, expecting that one or both of the peptides could inhibit the Bcl-2-IP3R interaction. Furthermore, the C-terminal region of domain 3a1 was not selected because of its lower accessibility and unpredictable secondary structure (Invitrogen PeptideSelect Design Tool). The scrambled sequence of peptide 2 was also synthesized and used as a control. […] The inhibitory effect of peptide 2 on Bcl-2-IP3R interaction was also detected in coimmunoprecipitation assays employing both Bcl-2(+) WEHI7.2 cells (FIGS. 4A and 4B) and Jurkat cells (FIG. 4C). […]

[3] = biological target: T1, Bcl-2-IP3R interaction; assay: coimmunoprecipitation of Bcl-2 with IP3R from cell extracts; format: binding; set-up: expressed in transfected cells; host or cells: Bcl-2(+) WEHI7.2 cells; also Jurkat cells (endogenous Bcl-2); settings: 400 μM peptide; Bcl-2(+) WEHI7.2 and Jurkat cell extracts
Description: FIG. 4 illustrates an IP3R Peptide Inhibits Bcl-2-IP3R Interaction but Not Bim-Bcl-2 Interaction. (A and D) IP3R was immunoprecipitated from extracts of Bcl-2(+) WEHI7.2 cells (C) or Jurkat cells in the presence of 400 μM peptides. Peptide 2, but not peptide 1 or control peptide, inhibited the Bcl-2-IP3R coimmunoprecipitation. Summary of Bcl-2 immunoblot signal intensities in three […] experiments identical to (C) (mean±SEM). (B) Bcl-2 was immunoprecipitated from Bcl-2(+) WEHI7.2 cell extracts in the presence of 400 μM peptides, and coimmunoprecipitation of Bim was detected by anti-Bim immunoblotting. […] (E) Summary of Bim immunoblot signal intensities in three experiments identical to (B) (mean±SEM).
Since the IP3R binding region was narrowed down to the 80 amino acid subdomain 3a1 (aa 1347-1426), we designed two 20 amino acid peptides (peptide 1, aa 1365-1384 (SEQ ID NO:2); peptide 2, aa 1389-1408 (SEQ ID NO:3)) based on the degree of homology in this region among different IP3R isoforms. […] The inhibitory effect of peptide 2 on Bcl-2-IP3R interaction was also detected in coimmunoprecipitation assays employing both Bcl-2(+) WEHI7.2 cells (FIGS. 4A and 4B) and Jurkat cells (FIG. 4C). […]

[4] = tested on: primary chronic lymphocytic leukemia cells; assay: cell killing by trypan blue dye exclusion, combination with ABT737; format: cell-based; settings: primary CLL cells, peptide combined with ABT737, 24 hours
Text: FIG. 10 illustrates a graph comparing the cell death percentage of chronic lymphocytic leukemia cells treated with combinations of ABT-737 and a peptide comprising SEQ ID NO: 3 and controls.
FIG. 11 illustrates a graph comparing the cell death percentage of chronic lymphocytic leukemia cells treated with ABT-737, a peptide comprising SEQ ID NO: 3, combinations thereof, and controls.
To test this hypothesis, we performed the experiments summarized below. […] Additions were made to CLL cells and cell death measured 24 hours later.

Sequence: NVYTEIKCNSLLPLDDIVRV (listed as Homo sapiens) [peptide 2, 20 amino acid peptide, aa 1389-1408 of IP3R subdomain 3a1]
- IP3 ester-induced Ca2+ elevation [1]: enhanced
- amount of Bcl-2 bound to GST-IP3R domain 3 ([2]; 200 μM peptide): significantly decreased
- amount of Bcl-2 bound to GST-IP3R domain 3 ([2]; 1 mM peptide): significantly decreased
- inhibition of Bcl-2-IP3R coimmunoprecipitation [3]: consistently inhibited
- cell death induction by ABT737 [4]: enhances cell death induction
